Measured values published in article PMC4598119, “Cancer-Related NEET Proteins Transfer 2Fe-2S Clusters to Anamorsin, a Protein Required for Cytosolic Iron-Sulfur Cluster Biogenesis” (PLoS ONE, 2015).

Tests used:
[1] = target: T1, apo-Anamorsin (cytokine induced apoptosis inhibitor-1), biotinylated (human, UniProt Q6FI81 1-312, biotin (EZ-Link Sulfo-NHS-LC-biotin, 2:1 molar ratio of reagent to protein)); test: BLI; Octet Red96; biotinylated apo-Anamorsin (3.5 uM) immobilised on streptavidin biosensors; holo-NEET in solution; 50 mM bis-tris, 100 mM NaCl, 0.1% Tween 20, 0.5 mg/ml BSA, pH 7.0, without DTT; association 900 s, dissociation 1800 s; 1:1 model; details: both partners purified
T1 construct: Anamorsin (CIAPIN-1), human cDNA (Abgent) subcloned into pET28-a(+) between NdeI and XhoI; Without clusters; The vector adds a 6x his-tag and a thrombin cleavage site at the N-terminus; no cleavage is described; also called CIAPIN-1; source: E. coli BL-21 Codon Plus (DE3) RIL, purified (Ni-NTA, HiTrap Q anion exchange); 2Fe-2S cluster removed by the method of Kennedy and Beinert
T1 sequence (Q6FI81 whole entry): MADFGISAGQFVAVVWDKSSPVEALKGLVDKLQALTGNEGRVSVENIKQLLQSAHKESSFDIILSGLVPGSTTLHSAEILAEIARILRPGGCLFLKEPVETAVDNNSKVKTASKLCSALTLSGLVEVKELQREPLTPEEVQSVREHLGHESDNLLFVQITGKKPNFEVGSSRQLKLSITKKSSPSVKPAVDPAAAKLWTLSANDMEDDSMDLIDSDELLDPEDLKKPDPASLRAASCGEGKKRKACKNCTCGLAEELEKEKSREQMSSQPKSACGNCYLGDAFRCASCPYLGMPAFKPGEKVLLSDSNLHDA

[2] = target: T2, holo-Anamorsin (prepared via cluster transfer from NAF-1), biotinylated (human, UniProt Q6FI81 1-312, biotin); test: BLI; biotinylated holo-Anamorsin (prepared via cluster transfer) immobilised on streptavidin biosensors; 16 uM holo-NAF-1 or 32 uM holo-mNT; association 900 s, dissociation 1800 s; 2:1 heterogeneous ligand model; average of two trials; details: both partners purified
T2 construct: Anamorsin (CIAPIN-1), human cDNA (Abgent) subcloned into pET28-a(+) between NdeI and XhoI; same chain as m3; also called post-cluster transfer Anamorsin; CIAPIN-1; source: E. coli BL-21 Codon Plus (DE3) RIL, purified; apo form loaded by cluster transfer from NAF-1, then purified from NAF-1 on HiTrap Q anion exchange
T2 sequence (Q6FI81 whole entry): as above

B1: nutrient-deprivation autophagy factor-1 (NAF-1), soluble domain (residues 57-135), holo (domain or fragment, human, UniProt Q8N5K1 57-135, looked up)
chain: RPFLPKKKQQKDSLINLKIQKENPKVVNEINIEDLCLTKAAYCRCWRSKTFPACDGSHNKHNELTGDNVGPLILKKKEV
notes: NAF-1 (CISD2), human, soluble domain, residues 57-135; Homodimer; each protomer holds one 2Fe-2S cluster (3Cys:1His); at least 98% cluster occupancy; also called holo-NAF-1; miner1; source: expressed and purified as described previously [19, 23]
Question: What does the source list for B1?
Answer: koff [1]: 0.0011 s⁻¹; kon [1]: 783 M⁻¹ s⁻¹

B2: mitoNEET (mNT), soluble domain (residues 33-108), holo (domain or fragment, human, UniProt Q9NZ45 33-108, looked up)
chain: RFYVKDHRNKAMINLHIQKDNPKIVHAFDMEDLGDKAVYCRCWRSKKFPFCDGAHTKHNEETGDNVGPLIIKKKET
notes: mitoNEET (CISD1), human, soluble domain, residues 33-108; Homodimer; each protomer holds one 2Fe-2S cluster (3Cys:1His); at least 98% cluster occupancy; also called holo-mNT; CISD1; source: expressed and purified as described previously [19, 23]
Question: B2 was tested. Which “fold change of koff against apo-Anamorsin” value [2] did it give?
Answer: 50 fold

Question: What about the koff [1] of the same binder?
Answer: 6.17e-05 s⁻¹

Question: And the kon [1]?
Answer: 317 M⁻¹ s⁻¹
